Series [1] concerns T4 DNA polymerase (3'-5' exonuclease) (Bacteriophage T4?). The experiment in a line: cleavage_in_vitro. To be noted: atmospheric pressure, room temperature.
A further series relates to Lambda exonuclease. Nature of the series: cleavage_in_vitro. To be noted: rate at 30,000 psi, 20 C; 89 mM glycine-KOH pH 9.4, 3.3 mM MgCl2 assay buffer; reversible pressure inhibition.

In series [1], DNA size markers (lambda DNA) yielded an activity (bp digested in 20 min) of 100.

In turn, Lambda DNA HindIII digest fragments showed an activity with Lambda exonuclease of 0.1 bases/s.

These data come from patent US6036923.
